In patent US20200207869A1:
Blank lines part the entries; values can stand above or below the substance they belong to.

How the values were obtained:
[1] = biological target: VWF in the plasma of the mice (endogenous murine VWF) (murine) (UniProt Q8CIZ8); test: sandwich ELISA of mouse plasma, anti-VWF capture, anti-FVIII detection; reference arbitrarily set as 100%
[2] = biological target: purified recombinant human VWF (human) (UniProt P04275); test: BLI (Octet-QK), rhVWF immobilized, FVIII 1.4 nM, single exponential decay
[3] = biological target: purified recombinant human VWF (human) (UniProt P04275); test: BLI (Octet-QK), rhVWF immobilized, FVIII 3.5 nM, single exponential decay
[4] = biological target: VWF in the plasma of the mice (endogenous murine VWF) (murine) (UniProt Q8CIZ8); test: sandwich ELISA of mouse plasma, anti-VWF capture, anti-FVIII detection

- VWF-FVIII complex relative to WT-FVIII-SQ [1]: 100%
Substance: wild-type B-domainless FVIII (WT-FVIII-SQ) (from UniProt P00451 20-2351)

- koff [2]: 0.003 s⁻¹
- koff [3]: 0.0022 s⁻¹
Substance: purified recombinant full-length factor VIII (Kogenate), P00451 20-2351

- VWF-FVIII complex relative to WT-FVIII-SQ [4]: 8%
Substance: B-domainless FVIII containing a Tyr to Phe replacement at position 1680 (FVIII-SQ/p.Y1680F) (from UniProt P00451 20-2351)
